Test [1] deals with T1, gD tagged human FcRH6 on SVT2 cells (human, UniProt Q6DN72 20-434).
T1 construct: whole, on cells; also called huFcRH6; not shown: gD tag; the construct for this FcRH is not described
T1 sequence (looked up): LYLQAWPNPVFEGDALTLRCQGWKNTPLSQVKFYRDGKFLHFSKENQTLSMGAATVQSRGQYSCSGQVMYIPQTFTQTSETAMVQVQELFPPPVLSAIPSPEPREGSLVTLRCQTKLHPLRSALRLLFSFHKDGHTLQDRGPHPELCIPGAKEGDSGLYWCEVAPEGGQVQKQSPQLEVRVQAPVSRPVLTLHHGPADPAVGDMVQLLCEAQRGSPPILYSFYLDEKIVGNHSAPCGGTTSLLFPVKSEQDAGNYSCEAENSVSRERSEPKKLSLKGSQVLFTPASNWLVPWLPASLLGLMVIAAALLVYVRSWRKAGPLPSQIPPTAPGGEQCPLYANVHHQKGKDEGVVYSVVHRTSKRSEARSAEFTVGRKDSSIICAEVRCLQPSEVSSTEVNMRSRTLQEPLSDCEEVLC
Nature of the test: FACS, SVT2.MSCV.gD.FcRH6 cells, PE secondary antibody. In general terms: Flow cytometry measures light scatter and fluorescence of single cells or particles in a stream.

Test [2] deals with T2, human FcRH5 on stably transfected cells (BJAB.huFcRH5, OPM2.huFcRH5) (human, UniProt Q96RD9 16-977).
T2 construct: also called BJAB-FcRH5; OPM2-FcRH5
T2 chain: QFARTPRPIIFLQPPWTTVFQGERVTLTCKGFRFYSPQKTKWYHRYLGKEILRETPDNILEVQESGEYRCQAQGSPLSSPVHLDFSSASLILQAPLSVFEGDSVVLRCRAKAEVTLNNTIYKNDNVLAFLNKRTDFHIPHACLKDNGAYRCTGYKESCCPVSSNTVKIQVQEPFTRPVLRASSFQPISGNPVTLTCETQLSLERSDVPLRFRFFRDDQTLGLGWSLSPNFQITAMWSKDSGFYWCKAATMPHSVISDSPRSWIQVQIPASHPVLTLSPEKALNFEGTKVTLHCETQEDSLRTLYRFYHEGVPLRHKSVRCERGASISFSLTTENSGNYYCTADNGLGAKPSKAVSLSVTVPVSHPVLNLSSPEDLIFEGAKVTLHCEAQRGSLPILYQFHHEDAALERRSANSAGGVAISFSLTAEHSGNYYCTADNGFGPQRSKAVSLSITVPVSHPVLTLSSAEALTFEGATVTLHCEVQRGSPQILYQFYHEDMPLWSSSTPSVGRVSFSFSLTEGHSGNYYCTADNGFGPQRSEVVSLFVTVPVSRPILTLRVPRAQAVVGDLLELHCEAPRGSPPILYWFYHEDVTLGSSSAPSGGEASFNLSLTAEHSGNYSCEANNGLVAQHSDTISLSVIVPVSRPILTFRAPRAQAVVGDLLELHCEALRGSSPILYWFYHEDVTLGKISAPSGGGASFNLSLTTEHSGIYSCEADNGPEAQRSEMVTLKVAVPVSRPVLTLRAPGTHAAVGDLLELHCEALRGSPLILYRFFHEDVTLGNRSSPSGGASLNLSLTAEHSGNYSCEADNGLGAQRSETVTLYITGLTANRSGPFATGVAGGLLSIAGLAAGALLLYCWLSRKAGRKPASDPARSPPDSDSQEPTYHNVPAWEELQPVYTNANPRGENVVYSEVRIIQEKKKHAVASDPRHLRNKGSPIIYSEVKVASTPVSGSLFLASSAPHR
Nature of the test: Scatchard analysis: 0.5 nM 125I-labeled antibody competed with the unlabeled antibody (50 to 0.02 nM) on BJAB.huFcRH5 cells, 4 h at 4 C; St. Error 0.007.

B1: murine monoclonal antibody anti-FcRH5-13G9 (antibody, V domains shown)
VH: EVQLVQSGPELKKPGETVKISCKASGYTFTNYGMNWVKQAPGKGLKWMGWVNTYTGEPTYTDDFKGRFAFSVETSASTVFLQINNLKNEDTATYFCARRSIPYYYAMDYWGQGTSLT
VL: DIVMTQSQKIMSTSVGDRVNVTCKASQNVGSNVAWYHQKPGQSPKALIYSASYRYSGVPDRFTGSGSGTDFTLTISNVQSEDLAEYFCQQYKTWTFGGGTKLEIKR
notes: Whole murine IgG from hybridoma; also called 13G9.1.1; mu13G9
Broadly, the Kd is the constant that tells how readily two partners part at equilibrium. A low value points to tighter binding. Turning to B1, the binding result in test [1] is reported as “no binding (tested: 1.0 ug per about 10^6 cells (p-1120))”. In test [2], the affinity, expressed as Kd, was 0.13 nM.

The values above are taken from US20130089497A1 (Genentech, published 2013).
